These results are taken from US20120100142A1.

Experiment in all cases: cell-based or functional assay
Assay [1] concerns the target HA of A/Mexico/4108/09 (2009 A (H1N1)) virus (influenza A/Mexico/4108/2009 (H1N1) virus).
Assay [2] deals with HA of influenza A/Swine/Iowa/15/30 (H1N1) virus (influenza A/Swine/Iowa/15/30 (H1N1) virus).
In assay [3] the target is HA of influenza A/USSR/92/77 (H1N1) virus (influenza A/USSR/92/77 (H1N1) virus).
The target in assay [4] is HA of influenza A/Weiss/43 (H1N1) virus (influenza A/Weiss/43 (H1N1) virus).

In assay [1], mAb 1F1 (antibody) showed an HAI, specific activity of indicated mAb above 5 µg/mL and a Neut Ab, specific activity of indicated mAb above 5 µg/mL. This substance showed a Specific HAI activity in assay [2] of 0.04 µg/mL. In assay [3], the neutralizing activity, specific activity is 0.88 µg/mL. In assay [4], this substance yielded a neutralizing activity, specific activity of 1.8 µg/mL.
